Here are results for two molecules from paper PMC7595112, “Ketohexokinase-A acts as a nuclear protein kinase that mediates fructose-induced metastasis in breast cancer” (Nature Communications, 2020).

One assay deals with SLUG (SNAIL2) (UniProt O43623). Nature of the assay: co-immunoprecipitation, immunoblot. As to conditions: reference: wild-type YWHAH; sites S25.
The target in assay [1] is T1, FLAG-LRRC59 purified from HEK293T cells (human, UniProt Q96AG4 1-307).
T1 construct: leucine-rich repeat-containing protein 59, human cDNA NM_018509 cloned by RT-PCR into pcDNA-FLAG
T1 sequence (looked up): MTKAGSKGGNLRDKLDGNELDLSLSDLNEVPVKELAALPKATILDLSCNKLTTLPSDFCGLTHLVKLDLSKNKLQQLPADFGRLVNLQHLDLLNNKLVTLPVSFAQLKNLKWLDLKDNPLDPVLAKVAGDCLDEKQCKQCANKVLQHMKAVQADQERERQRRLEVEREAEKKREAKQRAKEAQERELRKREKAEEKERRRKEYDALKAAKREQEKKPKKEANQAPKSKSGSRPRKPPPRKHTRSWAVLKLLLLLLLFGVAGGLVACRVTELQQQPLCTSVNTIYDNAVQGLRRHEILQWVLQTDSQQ
Put plainly: pull-down; purified His-KHK-A and FLAG-LRRC59 incubated 1 h at 4 °C with 1 mM fructose in 25 mM HEPES pH 7.5, 150 mM KCl, 12.5 mM MgCl2, 0.5 mM DTT, 0.1% NP-40, 10% glycerol; His-KHK-A pulled down with nickel-NTA, anti-Flag blot. As to conditions: both partners purified.

With “YWHAH (14-3-3η) (from UniProt Q04917) YWHAH S25A”, the “binding against the reference” value in the assay with SLUG (SNAIL2) was “lost”.

B1: His(6)-KHK-A purified from HEK293T cells (enzyme, human)
chain: MEEKQILCVGLVVLDVISLVDKYPKEDSEIRCLSQRWQRGGNASNSCTVLSLLGAPCAFMGSMAPGHVADFVLDDLRRYSVDLRYTVFQTTGSVPIATVIINEASGSRTILYYDRSLPDVSATDFEKVDLTQFKWIHIEGRNASEQVKMLQRIDAHNTRQPPEQKIRVSVEVEKPREELFQLFGYGDVVFVSKDVAKHLGFQSAEEALRGLYGRVRKGAVLVCAWAEEGADALGPDGKLLHSDAFPPPRVVDTLGAGDTFNASVIFSLSQGRSVQEALRFGCQVAGKKCGLQGFDGIV
notes: ketohexokinase isoform A (KHK-A), human cDNA NM_000221 cloned by RT-PCR into pcDNA-His(6); also called His-KHK-A; purified KHK-A; source: HEK293T, purified (nickel-NTA beads, eluted with 250 mM imidazole)
Take B1: in assay [1], the binding result is listed as “binds”.
